The target in the assay is EGF-MMP (recombinant epidermal growth factor with N-terminal PLP reactive site AKT, polyhistidine tag and MMP cleavage site VPLSLYSG). Nature of the assay: cell-based or functional assay.
Sequence of EGF-MMP (recombinant epidermal growth factor with N-terminal PLP reactive site AKT, polyhistidine tag and MMP cleavage site VPLSLYSG) (chain, as listed by the source limits assumed): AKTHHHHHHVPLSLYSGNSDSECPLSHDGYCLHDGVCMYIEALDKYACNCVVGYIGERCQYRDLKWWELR

On to “Recombinant, human pro-MMP-9 expressed in CHO cells, activated with amino-phenyl mercuric acetate (APMA) (from UniProt P14780 20-707) (enzyme)”, for which the EGF released from the conjugated PCL fiber mat after 4 hours of incubation with MMP-9 (ELISA) came to 20 ng/mg and the EGF released from the conjugated PCL fiber mat over the first 10 minutes after the enzyme was added (ELISA) (ng EGF/mg PCL) came out at 11.
